{
  "source": "patent US6815189B1",
  "about": "“Gene from acremonium chrysogenum encoding a protein with cephalosporin C acetylhydrolase activity and methods of use of such gene” (Antibiotics, S.A.U., priority 1999, dated 2004)",
  "system": "[H][C@]12SCC(COC(C)=O)=C(C(=O)O)N1C(=O)[C@H]2NC(=O)CCC[C@@H](N)C(=O)O",
  "experiment": "Effect of substrate concentration on CPC-AH B activity (Lineweaver-Burk)",
  "assay_type": "biochemical, Acremonium chrysogenum",
  "conditions": "other: CPC-AH B vs. CPC, 37.0 °C",
  "method": "To quantify the enzymatic degradation of the CPC, a reaction mixture was prepared, based on that described by Fujisawa et al. (1975, Agric. Biol. Chem. 39: 1303-1309) that contained, in a total volume of 100 μl: Tris-HCl, pH 8.0, 50 mM; CPC, 20 mM and culture supernatant 75 μl. The mixture was incubated for 60 minutes at 37° C. and the reaction was stopped by adding 100 μl of methanol. The proteins precipitated were removed by centrifugation for 5 minutes at 14 000 rev/min in an Eppendorff centrifuge. Production of DAC was analysed by injecting 100 μl of the reaction mixture in an HPLC Beckman System Gold equipped with a μBondapack C18 column. Elution was performed using a mixture of solvents A (10 mM sodium acetate—acetic acid, pH 4.5) and B (100% acetonitrile) using a linear gradient from 0 to 3% of solvent B between the 0 and 2 minutes and constant 3% from minute 2 to 15 at a flow of 1.3 ml/min. The cephalosporins are detected by their absorbance at 260 nm. In these conditions DAC is eluted with a retention time of 3.1 min whereas for CPC this occurs at 8.3 min. Both compounds were identified by co-elution with standard samples of CPC and DAC.\nWith fractions obtained from ion exchange separation, tests of CPC-AH activity were performed by HPLC, varying the concentration of CPC. […]",
  "data": [
    {"substance": "CPC-AH B (Hapsidospora chrysogenum ATCC 11550)", "values": [
      {"measurement": "Km", "result": 33.72, "unit": "mM"},
      {"measurement": "Vmax", "result": 91.95, "unit": "pKat/mg"}
    ]}
  ]
}
